Laboratory results published in US5939560A, “Inhibitors of DP-mediated processes, compositions and therapeutic methods thereof” (Ferring B.V., priority 1993, dated 1999).

Substrate: C[C@H](N)C(=O)N1CCC[C@H]1C(=O)Nc1ccc2c(C(F)(F)F)cc(=O)oc2c1
Assay: purified protein, by the assay type
Conditions: other: substrate of DP-IV assay
Procedure: All compounds were tested in vitro against pure human DP-IV (purchased from M & E, Copenhagen, Denmark). […] Ki values were determined using Dixon plots.

B1: pure human DP-IV (Homo sapiens) (protein)
chain: MKTPWKVLLGLLGAAALVTIITVPVVLLNKGTDDATADSRKTYTLTDYLKNTYRLKLYSLRWISDHEYLYKQENNILVFNAEYGNSSVFLENSTFDEFGHSINDYSISPDGQFILLEYNYVKQWRHSYTASYDIYDLNKRQLITEERIPNNTQWVTWSPVGHKLAYVWNNDIYVKIEPNLPSYRITWTGKEDIIYNGITDWVYEEEVFSAYSALWWSPNGTFLAYAQFNDTEVPLIEYSFYSDESLQYPKTVRVPYPKAGAVNPTVKFFVVNTDSLSSVTNATSIQITAPASMLIGDHYLCDVTWATQERISLQWLRRIQNYSVMDICDYDESSGRWNCLVARQHIEMSTTGWVGRFRPSEPHFTLDGNSFYKIISNEEGYRHICYFQIDKKDCTFITKGTWEVIGIEALTSDYLYYISNEYKGMPGGRNLYKIQLSDYTKVTCLSCELNPERCQYYSVSFSKEAKYYQLRCSGPGLPLYTLHSSVNDKGLRVLEDNSALDKMLQNVQMPSKKLDFIILNETKFWYQMILPPHFDKSKKYPLLLDVYAGPCSQKADTVFRLNWATYLASTENIIVASFDGRGSGYQGDKIMHAINRRLGTFEVEDQIEAARQFSKMGFVDNKRIAIWGWSYGGYVTSMVLGSGSGVFKCGIAVAPVSRWEYYDSVYTERYMGLPTPEDNLDHYRNSTVMSRAENFKQVEYLLIHGTADDNVHFQQSAQISKALVDVGVDFQAMWYTDEDHGIASSTAHQHIYTHMSHFIKQCFSLP
Km: 0.8 µM
